Assay results reported in PMC9165289, “Theranostic PSMA ligands with optimized backbones for intraoperative multimodal imaging and photodynamic therapy of prostate cancer” (European Journal of Nuclear Medicine and Molecular Imaging, 2022).
Like-named read-outs stand apart in the source and are kept apart here.

How the values were obtained:
[1] = tested on: LS174T-PSMA cells; experiment: in vitro binding and internalization assay; type: cell-based, human; conditions: 37 °C, 2 h
Protocol: The binding and internalization characteristics of the ligands were determined using LS174T-PSMA cells. Cells were cultured to confluency in 6-well plates followed by incubation with 50,000 counts per minute of ^111In-labeled ligand (0.1–0.25 pmol/well) in 1-ml RPMI + 0.5% BSA (37 °C, 2 h). Non-specific binding was determined by coincubation with 2(phosphonomethyl)-pentane-1,5-dioic acid (2-PMPA, 21.57 µM). PSMA-specific binding was defined as total binding minus the non-specific binding. To retrieve the membrane-bound fraction, cells were washed twice with PBS and incubated for 10 min at 0 °C with acid buffer (154-mM NaCl, 0.1 M acetic acid, pH 2.6). After incubation, the membrane-bound fraction was collected. Then, cells were washed and lysed with 0.1 M NaOH, and the cell lysate (intracellular activity) was collected. Intracellular and membrane-bound activity fractions were measured in a gamma-counter (2480 WIZARD^2 Automatic Gamma Counter, PerkinElmer).

[2] = tested on: LS174T-PSMA cells; experiment: in vitro targeted PDT assay (CellTiter-Glo); type: cell-based, human; conditions: 30 nM ligand, irradiated with 100 J/cm^2
Protocol: LS174T wildtype (LS174T-WT) and LS174T-PSMA cells were cultured to confluency in 48-well plates. Cells were incubated (2 h, 5% CO2, 37 °C) with 30-nM PSMA ligand in binding buffer (RPMI 1640 + 0.5% BSA) in triplicate. After washing with PBS, a 0.5-ml binding buffer was added to each well, and cells were irradiated with a NIR light-emitting diode (690 ± 20 nm). The typical forward voltage was 2.6 V creating a power output of 490 mW using 126 individual LED bulbs to ensure homogenous illumination of the area of interest predefined as 5 × 3 cm. The cells were irradiated at NIR radiant exposures of 100 J/cm^2 ([…]) and subsequently incubated for 1 h at 37 °C. Cells that only received the PSMA ligand, only the NIR light, or neither the ligand nor the light were included as controls. Cytotoxic effects of PDT with PSMA ligands were determined with a CellTiter-Glo™ assay (Promega Benelux) according to the manufacturer’s instructions. The binding buffer was replaced with 100-µl fresh binding buffer and 100-µl CellTiter-Glo® 2.0 Assay. Plates were shaken (2 min) and incubated for 10 min at room temperature. Next, luminescence was measured in a plate reader (Tecan Infinite® 200 PRO) to determine the metabolic activity of the cells.

[3] = ex vivo biodistribution of 111In-labeled ligands; parameters: species or system BALB/c nude mice; conditions: male, BALB/c nude, mouse, iv, 0.3 nmol, total radioactivity, 2 h p.i.; for tissue uptake at 2 h: 10 MBq/mouse, i.v.
Protocol: (§1) All animal experiments were approved by the institutional Animal Welfare Committee of the Radboud University Medical Center and were conducted in accordance to the guidelines of the Revised Dutch Act on Animal Experimentation. Animal experiments were performed in 8–10 weeks old male BALB/c nude mice (Janvier). The mice were housed in individually ventilated cages (Blue line IVC, 3–5 mice per cage), under standard non-sterile conditions with cage enrichment present. There was free access to chlorophyll-free animal chow (Sniff Voer) and water. Mice were subcutaneously inoculated with 3.0 × 10^6 LS174T-PSMA cells in the right flank and 1.5 × 10^6 LS174T WT cells in the left flank (diluted in 200-µl RPMI 1640 medium). When xenografts were approximately 0.5 cm^3 (10–14 days after injection), mice were block-randomized into groups based on tumor size. The researchers were not blinded for the experimental groups.
(§2) Mice were intravenously injected with 0.3 nmol PSMA ligand, labeled with 10 MBq ^111In (molar activity 33.3 MBq/nmol) in PBS + 0.5% (w/v) BSA. For the ex vivo biodistribution, five groups (one group for each ligand) of four mice were included. Two hours p.i., all mice were euthanized by CO2/O2-asphyxiation. For two mice of each group (2 mice/ligand), background-subtracted fluorescence images were acquired with the IVIS imaging system (Xenogen VivoVision IVIS Lumina II, PerkinElmer), with a 640-nm excitation filter and a Cy5.5 emission filter and an acquisition time of 10 s. Next, µSPECT/CT imaging was performed in the same two mice per group, with a 1.0-mm diameter pinhole mouse collimator tube (U-SPECT II, MILabs). Mice were scanned for 30 min followed by a CT scan for anatomical reference (spatial resolution 160 μm, 615 μA, 65 kV). MILabs reconstruction software was used to reconstruct the µSPECT/CT scans, via an ordered-subset expectation maximization algorithm, energy windows 154–188 keV and 220–270 keV, 3 iterations, 16 subsets, and voxel size of 0.75 mm. SPECT/CT maximum intensity projections (MIPs) were created using the Inveon Research Workplace software (Siemens Preclinical Solutions, version 4.1). NIR fluorescence images were analyzed using Living Image software (PerkinElmer, version 4.2). After imaging, relevant tissues were dissected, weighed, and measured for radioactivity in a gamma-counter (2480 WIZARD^2 Automatic Gamma Counter, PerkinElmer). In addition, a blocking experiment with PSMA-N064 and PSMA-617 was performed. Full experimental procedures and results can be found in the supplementary data (Page 5, Supplementary Fig. 3).

[4] = tested on: LS174T-PSMA and LS174T wildtype xenografts; experiment: ex vivo biodistribution of 111In-labeled ligands; parameters: species or system BALB/c nude mice; conditions: 0.3 nmol, 2 h p.i.
Protocol: as §1, §2

For `C[Si](C)(CCC[N+](CCCS(=O)(=O)[O-])(CCCS(=O)(=O)O)CCCS(=O)(=O)O)O[Si]1(O[Si](C)(C)CCC[N+](CCCS(=O)(=O)[O-])(CCCS(=O)(=O)O)CCCS(=O)(=O)O)n2c3c4ccccc4c2N=C2N=C(N=c4c5c(OCCCOC(=O)NCCCCCC(=O)NCCCC[C@H](NC(=O)CN6CCN(CC(=O)O)CCN(CC(=O)O)CCN(CC(=O)O)CC6)C(=O)NCCCC[C@H](NC(=O)[C@H](CCC(=O)O)NC(=O)c6ccccc6)C(=O)NCc6ccc(C(=O)N[C@@H](Cc7ccc8ccccc8c7)C(=O)NCCCC[C@H](NC(=O)N[C@@H](CCC(=O)O)C(=O)O)C(=O)O)cc6)cccc5c(n41)=NC1=NC(=N3)c3ccccc31)c1ccccc12` [PSMA-N01], the “internalization percentage (percentage of cell-associated ligand that was internalized)” value [1] was 73–90%, the cell viability [2] was 23% ± 5% and the tissue uptake at 2 h ([3]; LS174T wildtype tumor, n=4, read-out: Biodistribution Tumor- LS174T) was 1.1 ± 0.2 %ID/g. The tissue uptake at 2 h ([3]; LS174T-PSMA tumor, n=4, read-out: Biodistribution Tumor+ LS174T-PSMA) was 21 ± 3 %ID/g, the tissue uptake at 2 h ([3]; adrenals, n=4, read-out: Biodistribution Adrenals) was 1.8 ± 0.1 %ID/g and the tissue uptake at 2 h ([3]; blood, n=4, read-out: Biodistribution Blood) was 1.1 ± 0.1 %ID/g. The tissue uptake at 2 h ([3]; bone marrow, n=4, read-out: Biodistribution Bone marrow) was 0.3 ± 0.2 %ID/g, the tissue uptake at 2 h ([3]; bone, n=4, read-out: Biodistribution Bone) was 0.7 ± 0.1 %ID/g and the tissue uptake at 2 h ([3]; duodenum, n=4, read-out: Biodistribution Duodenum) was 0.7 ± 0.1 %ID/g. The tissue uptake at 2 h ([3]; heart, n=4, read-out: Biodistribution Heart) was 0.6 ± 0.1 %ID/g, the tissue uptake at 2 h ([3]; kidney, n=4, read-out: Biodistribution Kidney) was 90 ± 7 %ID/g and the tissue uptake at 2 h ([3]; liver, n=4, read-out: Biodistribution Liver) was 1.5 ± 0.2 %ID/g. The tissue uptake at 2 h ([3]; lung, n=4, read-out: Biodistribution Lung) was 2.7 ± 0.9 %ID/g, the tissue uptake at 2 h ([3]; muscle, n=4, read-out: Biodistribution Muscle) was 0.2 ± 0.03 %ID/g and the tissue uptake at 2 h ([3]; pancreas, n=4, read-out: Biodistribution Pancreas) was 0.4 ± 0.1 %ID/g. The tissue uptake at 2 h ([3]; prostate, n=4, read-out: Biodistribution Prostate) was 0.6 ± 0.1 %ID/g, the tissue uptake at 2 h ([3]; salivary glands, n=4, read-out: Biodistribution Salivary glands) was 0.8 ± 0.1 %ID/g and the tissue uptake at 2 h ([3]; spleen, n=4, read-out: Biodistribution Spleen) was 2.2 ± 0.4 %ID/g. For the same compound, the tissue uptake at 2 h ([3]; stomach, n=4, read-out: Biodistribution Stomach) was 0.7 ± 0.1 %ID/g, the tissue to tissue ratio at 2 h ([3]; tumor (LS174T-PSMA xenograft) / blood, read-out: Tumor/Blood ratio) was 20 ± 2.5 and the tissue to tissue ratio at 2 h ([3]; tumor (LS174T-PSMA xenograft) / kidney, read-out: Tumor/Kidney ratio) was 0.2 ± 0.04. The tissue to tissue ratio at 2 h ([3]; tumor (LS174T-PSMA xenograft) / liver, read-out: Tumor/Liver ratio) was 14.6 ± 2.4, the tissue to tissue ratio at 2 h ([3]; tumor (LS174T-PSMA xenograft) / spleen, read-out: Tumor/Spleen ratio) was 9.9 ± 1.4 and the “Biodistribution Kidney” value ([4]; 10 MBq/mouse, i.v., n=4) was 99.2 ± 11.5 %ID/g. For the same compound, the Tumor/Negative tumor ratio [4] was 19.7 ± 6.5, the Tumor/Prostate ratio [4] was 35.6 ± 4.6 and the Tumor/Salivary gland ratio [4] was 27.8 ± 4.8.
